Measurements: US20240360201A1 (BIOCYTOGEN PHARMACEUTICALS BEIJING, published 2024)
Values belong to the binder of their own block, whether it stands above or below them.

How the values were obtained:
[1] = molecular target: T1, 6×Histidine-tagged human PD-L1 protein (hPDL1-His) (human, UniProt Q9NZQ7 19-238); test: SPR Biacore T200; binder captured on protein A chip, target as analyte
T1 construct: also called hPL1-His; His-tagged human PD-L1

[2] = molecular target: T1, 6×Histidine-tagged human PD-L1 protein …; test: SPR Biacore T200; binder captured on protein A chip, hPL1-His 1.5625-200 nM as analyte
Experimental: Dissociation was monitored for 400 seconds. The chip was regenerated after the last injection of each titration with Glycine (pH 2.0, 30 μL/min for 12 seconds). As a person of ordinary skill in the art would understand, the same method with appropriate adjustments for parameters (e.g., fusion protein concentration) was performed for each tested fusion protein.
Kinetic association rates (kon) and dissociation rates (koff) were obtained simultaneously by fitting the data globally to a 1:1 Langmuir binding model (Karlsson, R. Roos, H. Fagerstam, L. Petersson, B., 1994. Methods Enzymology 6. 99-110) using Biacore™ T200 Evaluation Software 3.0. Affinities were calculated from the quotient of the kinetic rate constants (KD=koff/kon). […] Non-specific effects were not observed.

[3] = molecular target: T1, 6×Histidine-tagged human PD-L1 protein …; test: SPR Biacore T200; binder captured on protein A chip, target as analyte; remark: listed apart in the source
[4] = molecular target: T2, His-tagged recombinant mouse IL12RB2 protein (mIL12R-B2-His) (mouse, UniProt P97378 24-637, limits assumed); test: as above
T2 construct: bought
T2 sequence (looked up): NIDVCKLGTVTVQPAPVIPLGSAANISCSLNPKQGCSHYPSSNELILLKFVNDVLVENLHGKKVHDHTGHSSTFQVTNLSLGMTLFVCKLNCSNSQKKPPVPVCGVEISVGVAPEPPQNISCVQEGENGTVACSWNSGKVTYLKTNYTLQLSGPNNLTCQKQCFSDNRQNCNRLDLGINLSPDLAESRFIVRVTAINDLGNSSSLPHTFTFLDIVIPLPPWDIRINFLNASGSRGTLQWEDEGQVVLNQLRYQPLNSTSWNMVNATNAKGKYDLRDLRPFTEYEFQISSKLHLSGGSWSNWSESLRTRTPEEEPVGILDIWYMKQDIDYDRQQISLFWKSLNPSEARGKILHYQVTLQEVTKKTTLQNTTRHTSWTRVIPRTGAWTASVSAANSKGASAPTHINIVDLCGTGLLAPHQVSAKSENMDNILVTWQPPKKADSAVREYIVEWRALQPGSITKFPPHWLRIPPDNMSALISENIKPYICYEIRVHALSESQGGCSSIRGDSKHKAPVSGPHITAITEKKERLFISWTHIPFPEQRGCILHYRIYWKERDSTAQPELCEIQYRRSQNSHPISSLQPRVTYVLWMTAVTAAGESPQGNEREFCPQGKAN

TGFb1 = molecular target: T3, TGFb1 (Homo sapiens (Human), UniProt P01137 279-390, Active TGF-beta-1 is a disulfide-linked homodimer of this chain; one copy is given.); test: SPR; binder as capture solution, TGFb1 as analyte
T3 construct: also called TGFb1 protein
T3 sequence (P01137 279-390 limits assumed): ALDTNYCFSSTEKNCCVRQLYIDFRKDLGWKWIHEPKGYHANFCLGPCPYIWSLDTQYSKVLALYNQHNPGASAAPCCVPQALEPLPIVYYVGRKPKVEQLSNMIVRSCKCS

T1 sequence (Q9NZQ7 19-238 limits assumed): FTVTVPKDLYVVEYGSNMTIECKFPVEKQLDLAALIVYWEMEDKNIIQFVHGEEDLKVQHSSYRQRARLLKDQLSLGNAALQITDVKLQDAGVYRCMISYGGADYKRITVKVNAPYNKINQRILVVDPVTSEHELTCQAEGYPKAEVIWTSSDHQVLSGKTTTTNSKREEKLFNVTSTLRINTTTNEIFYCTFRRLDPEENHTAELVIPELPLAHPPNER

B2: 3F2-hIL21-3A-mIFNa4 (antibody, IgG1)
heavy: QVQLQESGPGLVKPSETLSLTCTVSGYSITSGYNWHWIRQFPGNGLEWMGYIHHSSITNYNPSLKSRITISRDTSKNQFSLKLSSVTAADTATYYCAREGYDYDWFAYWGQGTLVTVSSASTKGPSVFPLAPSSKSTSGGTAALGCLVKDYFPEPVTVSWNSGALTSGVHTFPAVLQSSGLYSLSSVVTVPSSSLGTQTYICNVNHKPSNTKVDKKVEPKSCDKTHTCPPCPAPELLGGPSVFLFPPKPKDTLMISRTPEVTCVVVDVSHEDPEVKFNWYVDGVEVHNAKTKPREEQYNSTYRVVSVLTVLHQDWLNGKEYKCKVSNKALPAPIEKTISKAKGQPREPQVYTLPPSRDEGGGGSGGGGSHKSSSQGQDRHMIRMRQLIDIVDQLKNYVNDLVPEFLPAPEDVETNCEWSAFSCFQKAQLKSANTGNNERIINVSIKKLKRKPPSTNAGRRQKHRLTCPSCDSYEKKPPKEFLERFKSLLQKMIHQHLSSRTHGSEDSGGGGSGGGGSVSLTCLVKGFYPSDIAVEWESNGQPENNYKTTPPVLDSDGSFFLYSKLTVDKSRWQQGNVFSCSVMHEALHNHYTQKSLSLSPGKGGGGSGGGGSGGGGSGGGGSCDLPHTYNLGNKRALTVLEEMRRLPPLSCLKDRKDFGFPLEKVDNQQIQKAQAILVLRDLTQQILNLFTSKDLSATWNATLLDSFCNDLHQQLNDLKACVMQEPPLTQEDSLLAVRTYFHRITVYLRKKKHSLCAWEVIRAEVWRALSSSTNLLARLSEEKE
light: DIVLTQSPDFQSVTPKEKVTITCRASQSISNNLHWYQQKPDESPKLLIKYASQSISGIPSRFSGSGSGTDFTLTINSVEAEDFAMYFCQQSKSWPFTFGQGTRLEIKRTVAAPSVFIFPPSDEQLKSGTASVVCLLNNFYPREAKVQWKVDNALQSGNSQESVTEQDSKDSTYSLSSTLTLSKADYEKHKVYACEVTHQGLSSPVTKSFNRGEC
notes: IgG1
Kd [1]: 613 pM
koff [1]: 0.00072 s⁻¹
kon [1]: 1.17e+06 M⁻¹ s⁻¹

B4: 3F2-hIL7-3A-mIFNa4 (antibody, IgG1)
heavy: QVQLQESGPGLVKPSETLSLTCTVSGYSITSGYNWHWIRQFPGNGLEWMGYIHHSSITNYNPSLKSRITISRDTSKNQFSLKLSSVTAADTATYYCAREGYDYDWFAYWGQGTLVTVSSASTKGPSVFPLAPSSKSTSGGTAALGCLVKDYFPEPVTVSWNSGALTSGVHTFPAVLQSSGLYSLSSVVTVPSSSLGTQTYICNVNHKPSNTKVDKKVEPKSCDKTHTCPPCPAPELLGGPSVFLFPPKPKDTLMISRTPEVTCVVVDVSHEDPEVKFNWYVDGVEVHNAKTKPREEQYNSTYRVVSVLTVLHQDWLNGKEYKCKVSNKALPAPIEKTISKAKGQPREPQVYTLPPSRDEGGGGSGGGGSDCDIEGKDGKQYESVLMVSIDQLLDSMKEIGSNCLNNEFNFFKRHICDANKEGMFLFRAARKLRQFLKMNSTGDFDLHLLKVSEGTTILLNCTGQVKGRKPAALGEAQPTKSLEENKSLKEQKKLNDLCFLKRLLQEIKTCWNKILMGTKEHGGGGSGGGGSVSLTCLVKGFYPSDIAVEWESNGQPENNYKTTPPVLDSDGSFFLYSKLTVDKSRWQQGNVFSCSVMHEALHNHYTQKSLSLSPGKGGGGSGGGGSGGGGSGGGGSCDLPHTYNLGNKRALTVLEEMRRLPPLSCLKDRKDFGFPLEKVDNQQIQKAQAILVLRDLTQQILNLFTSKDLSATWNATLLDSFCNDLHQQLNDLKACVMQEPPLTQEDSLLAVRTYFHRITVYLRKKKHSLCAWEVIRAEVWRALSSSTNLLARLSEEKE
light: B2 light
notes: IgG1
Kd [3]: 685 pM
koff [3]: 0.000803 s⁻¹
kon [3]: 1.17e+06 M⁻¹ s⁻¹

B5: 3F2-hIL21-3A (antibody, IgG1)
heavy: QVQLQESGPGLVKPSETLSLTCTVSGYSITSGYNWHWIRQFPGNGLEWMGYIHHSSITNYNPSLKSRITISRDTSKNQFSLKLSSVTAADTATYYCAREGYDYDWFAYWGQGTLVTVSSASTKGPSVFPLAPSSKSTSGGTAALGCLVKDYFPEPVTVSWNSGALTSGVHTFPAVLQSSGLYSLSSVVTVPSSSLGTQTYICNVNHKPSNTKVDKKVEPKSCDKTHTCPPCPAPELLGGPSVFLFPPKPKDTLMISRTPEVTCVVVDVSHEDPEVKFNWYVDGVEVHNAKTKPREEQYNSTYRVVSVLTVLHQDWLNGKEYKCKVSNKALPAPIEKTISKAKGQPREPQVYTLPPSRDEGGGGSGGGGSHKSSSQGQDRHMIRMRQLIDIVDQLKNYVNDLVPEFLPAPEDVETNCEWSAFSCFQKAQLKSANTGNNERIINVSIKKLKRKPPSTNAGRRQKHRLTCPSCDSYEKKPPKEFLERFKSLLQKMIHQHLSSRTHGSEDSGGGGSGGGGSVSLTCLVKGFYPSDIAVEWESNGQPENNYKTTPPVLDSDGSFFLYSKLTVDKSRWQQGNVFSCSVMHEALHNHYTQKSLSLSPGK
light: B2 light
notes: IgG1
Kd [1]: 515 pM
koff [1]: 0.000613 s⁻¹
kon [1]: 1.19e+06 M⁻¹ s⁻¹

Now from value to binder:

Kd [1]: 372 pM
koff [1]: 0.000652 s⁻¹
kon [1]: 1.75e+06 M⁻¹ s⁻¹
Kd [2]: 559 pM
koff [2]: 0.0013 s⁻¹
kon [2]: 2.32e+06 M⁻¹ s⁻¹
Kd [3]: 372 pM
koff [3]: 0.000652 s⁻¹
kon [3]: 1.75e+06 M⁻¹ s⁻¹
B1: PDL1-3F2 (antibody, human IgG1, kappa)
heavy: not shown
light: B2 light
notes: also called PDL1-3F2-IgG1; PDL1-3F2 IgG1

Kd [4]: 58500 pM
koff [4]: 0.00335 s⁻¹
kon [4]: 57300 M⁻¹ s⁻¹
Kd [2]: 382 pM
koff [2]: 0.000952 s⁻¹
kon [2]: 2.49e+06 M⁻¹ s⁻¹
B3: 3F2-mIL12-3A (antibody, IgG1)
heavy: QVQLQESGPGLVKPSETLSLTCTVSGYSITSGYNWHWIRQFPGNGLEWMGYIHHSSITNYNPSLKSRITISRDTSKNQFSLKLSSVTAADTATYYCAREGYDYDWFAYWGQGTLVTVSSASTKGPSVFPLAPSSKSTSGGTAALGCLVKDYFPEPVTVSWNSGALTSGVHTFPAVLQSSGLYSLSSVVTVPSSSLGTQTYICNVNHKPSNTKVDKKVEPKSCDKTHTCPPCPAPELLGGPSVFLFPPKPKDTLMISRTPEVTCVVVDVSHEDPEVKFNWYVDGVEVHNAKTKPREEQYNSTYRVVSVLTVLHQDWLNGKEYKCKVSNKALPAPIEKTISKAKGQPREPQVYTLPPSRDEGGGGSGGGGSVIPVSGPARCLSQSRNLLKTTDDMVKTAREKLKHYSCTAEDIDHEDITRDQTSTLKTCLPLELHKNESCLATRETSSTTRGSCLPPQKTSLMMTLCLGSIYEDLKMYQTEFQAINAALQNHNHQQIILDKGMLVAIDELMQSLNHNGETLRQKPPVGEADPYRVKMKLCILLHAFSTRVVTINRVMGYLSSAGGGGSGGGGSVSLTCLVKGFYPSDIAVEWESNGQPENNYKTTPPVLDSDGSFFLYSKLTVDKSRWQQGNVFSCSVMHEALHNHYTQKSLSLSPGK
light: B2 light
chain: MWELEKDVYVVEVDWTPDAPGETVNLTCDTPEEDDITWTSDQRHGVIGSGKTLTITVKEFLDAGQYTCHKGGETLSHSHLLLHKKENGIWSTEILKNFKNKTFLKCEAPNYSGRFTCSWLVQRNMDLKFNIKSSSSSPDSRAVTCGMASLSAEKVTLDQRDYEKYSVSCQEDVTCPTAEETLPIELALEARQQNKYENYSTSFFIRDIIKPDPPKNLQMKPLKNSQVEVSWEYPDSWSTPHSYFSLKFFVRIQRKKEKMKETEEGCNQKGAFLVEKTSTEVQCKGGNVCVQAQDRYYNSSCSKWACVPCRVRS
notes: IgG1; IL12b co-expressed; also called 3F2-mIL12-3A-IgG1

Kd [4]: 56500 pM
koff [4]: 0.00299 s⁻¹
kon [4]: 52900 M⁻¹ s⁻¹
Kd [2]: 396 pM
koff [2]: 0.000922 s⁻¹
kon [2]: 2.33e+06 M⁻¹ s⁻¹
B6: 3F2-mIL12-3A-mIFNa4 (antibody, IgG1)
heavy: QVQLQESGPGLVKPSETLSLTCTVSGYSITSGYNWHWIRQFPGNGLEWMGYIHHSSITNYNPSLKSRITISRDTSKNQFSLKLSSVTAADTATYYCAREGYDYDWFAYWGQGTLVTVSSASTKGPSVFPLAPSSKSTSGGTAALGCLVKDYFPEPVTVSWNSGALTSGVHTFPAVLQSSGLYSLSSVVTVPSSSLGTQTYICNVNHKPSNTKVDKKVEPKSCDKTHTCPPCPAPELLGGPSVFLFPPKPKDTLMISRTPEVTCVVVDVSHEDPEVKFNWYVDGVEVHNAKTKPREEQYNSTYRVVSVLTVLHQDWLNGKEYKCKVSNKALPAPIEKTISKAKGQPREPQVYTLPPSRDEGGGGSGGGGSVIPVSGPARCLSQSRNLLKTTDDMVKTAREKLKHYSCTAEDIDHEDITRDQTSTLKTCLPLELHKNESCLATRETSSTTRGSCLPPQKTSLMMTLCLGSIYEDLKMYQTEFQAINAALQNHNHQQIILDKGMLVAIDELMQSLNHNGETLRQKPPVGEADPYRVKMKLCILLHAFSTRVVTINRVMGYLSSAGGGGSGGGGSVSLTCLVKGFYPSDIAVEWESNGQPENNYKTTPPVLDSDGSFFLYSKLTVDKSRWQQGNVFSCSVMHEALHNHYTQKSLSLSPGKGGGGSGGGGSGGGGSGGGGSCDLPHTYNLGNKRALTVLEEMRRLPPLSCLKDRKDFGFPLEKVDNQQIQKAQAILVLRDLTQQILNLFTSKDLSATWNATLLDSFCNDLHQQLNDLKACVMQEPPLTQEDSLLAVRTYFHRITVYLRKKKHSLCAWEVIRAEVWRALSSSTNLLARLSEEKE
light: B2 light
chain: B3 chain
notes: IgG1; 3F2-mIL12-3A with mIFNa4 linked to each heavy chain C-terminus

Kd (TGFb1): 83000 pM
koff (TGFb1): 0.00852 s⁻¹
kon (TGFb1): 103000 M⁻¹ s⁻¹
B7: M7824 (antibody, human IgG1, lambda)
heavy: not shown
light: QSALTQPASVSGSPGQSITISCTGTSSDVGGYNYVSWYQQHPGKAPKLMIYDVSNRPSGVSNRFSGSKSGNTASLTISGLQAEDEADYYCSSYTSSSTRVFGTGTKVTVLGQPKANPTVTLFPPSSEELQANKATLVCLISDFYPGAVTVAWKADGSPVKAGVETTKPSKQSNNKYAASSYLSLTPEQWKSHRSYSCQVTHEGSTVEKTVAPTECS
notes: Extracellular domain of TGFbR2 linked at the C terminal of the Fc of the anti-PDL1 antibody; also called bifunctional anti-PD-L1/TGFβ Trap fusion protein
